Reference: patent publication US20240343803A1 (SHANDONG SIMCERE BIOPHARMACEUTICAL, published 2024)
Read-outs that look alike come from different tables or passages of the source.

How the values were obtained:
human TIGIT ECD-mFc [1] = target: T1, human TIGIT ECD-mFc (human); assay: ELISA, human TIGIT ECD-mFc captured by anti-mouse IgG
T1 construct: also called human TIGIT protein; fusion protein of extracellular domain of human TIGIT and mouse IgG2a Fc fragment
T1 chain: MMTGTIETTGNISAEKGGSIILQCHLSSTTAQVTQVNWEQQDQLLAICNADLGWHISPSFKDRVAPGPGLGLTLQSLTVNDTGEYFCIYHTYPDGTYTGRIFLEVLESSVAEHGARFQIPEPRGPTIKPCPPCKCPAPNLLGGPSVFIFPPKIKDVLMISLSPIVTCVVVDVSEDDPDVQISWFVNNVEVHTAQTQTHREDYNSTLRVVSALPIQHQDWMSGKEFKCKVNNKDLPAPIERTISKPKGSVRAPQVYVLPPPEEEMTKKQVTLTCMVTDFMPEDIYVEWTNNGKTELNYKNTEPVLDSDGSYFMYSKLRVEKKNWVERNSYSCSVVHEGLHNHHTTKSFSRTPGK
Experimental: (§1) After washing with blocking buffer, the plate was added with 50 μL/well of 30 ng/ml human TIGIT ECD-mFc (in house) or cynomolgus monkey TIGIT ECD-mFc (in house) and incubated at 37° C. for 2.0 hours. After washing the plate, the serial diluted antibodies (initial concentration 13 nM, 3-fold serial dilution, 12 concentration points) were added into the plate (50 μL/well) and incubated at 37° C. for 2.0 hours. After washing the plate, the goat anti-human IgG Fc-HRP (Merck, Cat NO. AP113P)) working solution (dilution ratio 1:5000, 50 μL/well) were added into wells and incubated at 37° C. for 1.0 hour. A HRP substrate, TMB (KPL, Cat NO. 5120-0077) was added into wells after washing the plate again for color development. After adding a termination solution to terminate the reaction, the absorbance value was read by a microplate reader (PE, Ensight-HH3400). An antibody binding curve was drawn with molar concentration of antibodies as the abscissa and the corresponding OD value as the ordinate. The EC50 value was calculated by using a Four Parameter Logistic Fit (GraphPad Prism9). […] The positive control antibodies are RG6058-hIgG1, TIGIT-002-H4L3 and TIGIT-005-H2Lld; and the negative control antibodies are anti-Fluorescein-hIgG1 (in house). The binding results of the 4 humanized bispecific antibodies to human TIGIT protein are shown in FIG. 43 and Tables 42 and 43, and the binding results to cynomolgus monkey TIGIT are shown in FIG. 44 and Tables 42 and 43.

[2] = target: T2, cynomolgus monkey TIGIT ECD-mFc (cynomolgus monkey); assay: ELISA, cynomolgus TIGIT ECD-mFc captured by anti-mouse IgG
T2 construct: also called cynomolgus monkey TIGIT protein
Experimental: as §1

human TIGIT ECD-mFc [3] = target: T1, human TIGIT ECD-mFc; assay: ELISA, human TIGIT ECD-mFc captured by anti-mouse IgG
Experimental: as §1

[4] = target: T2, cynomolgus monkey TIGIT ECD-mFc; assay: ELISA, cynomolgus TIGIT ECD-mFc captured by anti-mouse IgG; remark: listed apart in the source
Experimental: as §1

[5] = target: T3, human PVRIG-mFc protein (Acro, PVG-H5253) (human, UniProt Q6DKI7 41-171, limits assumed); assay: HTRF competition, PVRIG-mFc with Bio-CD112-His as competitor
T3 construct: extracellular domain; Bought protein; also called PVRIG-ECD-mFc; not shown: mouse Fc tag of the bought protein
T3 sequence (looked up): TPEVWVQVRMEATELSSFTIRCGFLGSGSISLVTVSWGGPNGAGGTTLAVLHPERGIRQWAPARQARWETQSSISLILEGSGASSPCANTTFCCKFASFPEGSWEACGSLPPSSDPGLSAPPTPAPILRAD
Experimental: PVRIG-mFc (ACRO Biosystems, Cat NO. PVG-H5253) and Bio-CD112-His (Sino Biological, Cat NO. 10005-H08H) were diluted to 0.5 μg/mL, respectively. Streptavidin-Tb cryptate (Cisbio) and PAb anti mouse IgG-XL665 (Cisbio) were diluted to 20 μg/mL and 0.8 μg/mL, respectively. The tested antibodies were diluted from the initial concentration of 120 nM, by 3-fold serial dilution for 12 concentration points. The diluted PVRIG-mFc, Bio-CD112-His, Streptavidin-Tb Crytate and PAb anti mouse IgG-XL665 were mixed at 1:1:1:1, and added into a 384-well plate (PE, Cat NO. 6007299), 10 μL/well. 10 μL/well of serially diluted antibodies was added into wells, centrifuged at 1500 rpm for 30s, and incubated at 37° C. for 1 hour. The plate was read on the microplate reader (PE, Envision2105) with wavelengths of 665 nm and 620 nm. […] A Four Parameter Logistic Fit was performed with the molar concentration of the antibodies as the abscissa and Ratio as the ordinate to calculate IC50. The smaller the IC50, the better the effect of the antibody block the binding of PVRIG to PVRL2. The positive controls in this experiment are COM701-hIgG1, PVRIG-A50-H1b and PVRIG-A105-H1; and the negative control antibody is anti-Fluorescein-hIgG1 (in house). The effect of 4 humanized bispecific antibodies blocking the binding of PVRIG to PVRL2 is shown in FIG. 51 and Tables 44 and 45. […] The blocking effect of LC-BsAb-002 is better than its corresponding monoclonal antibody (PVRIG-A50-H1b) and the positive control (COM701-hIgG1). The blocking effect of LC-BsAb-006 is better than its corresponding monoclonal antibody (PVRIG-A50-H1b), but slightly weaker than the positive control (COM701-hIgG1). The blocking effects of LC-BsAb-009 and LC-BsAb-010 are not as good as their corresponding monoclonal antibodies (PVRIG-A105-H1) and the positive control (COM701-hIgG1).

[6] = target: T4, cynomolgus monkey PVRIG (Novoprotein, Cat NO. C09B) (cynomolgus monkey, UniProt A0A2K5WVV8 41-171); assay: ELISA, coated cynomolgus PVRIG
T4 construct: Bought protein; construct not described; also called cynomolgus monkey PVRIG protein
T4 sequence: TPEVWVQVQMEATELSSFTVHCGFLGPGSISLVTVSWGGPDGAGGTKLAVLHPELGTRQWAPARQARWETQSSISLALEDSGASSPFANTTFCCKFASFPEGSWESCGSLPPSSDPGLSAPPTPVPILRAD
Experimental: (§2) The ELISA plate was pre-coated with 50 μL/well of 1.0 μg/mL human PVRIG (AcroBiosystems, Cat NO. PVG-H52H4) or 50 μL/well of 0.5 μg/mL cynomolgus monkey PVRIG (Novoprotein, Cat NO. C09B). The tested antibodies were serially diluted (initial concentration 13 nM, 3-fold serial dilution, 12 concentration points), added into the plate (50 μL/well) and incubated at 37° C. for 2.0 hours. After washing the plate, the Goat anti-human IgG Fc-HRP (Merck, Cat NO. AP113P) working solution (dilution ratio 1:5000, 50 μL/well) were added into wells and incubated at 37° C. for 1.0 hour. A HRP substrate, TMB (KPL, Cat NO. 5120-0077) was added into wells after washing the plate again and incubated at 37° C. for 10 minutes for color development. After adding a termination solution to terminate the reaction, the absorbance value was read by a microplate reader (PE, Ensight-HH3400). An antibody binding curve was drawn with molar concentration of antibodies as the abscissa and the corresponding OD value as the ordinate. The EC50 value was calculated by using a Four Parameter Logistic Fit (GraphPadPrism9). […] The positive control antibodies are COM701-hIgG1, PVRIG-A50-H1b and PVRIG-A105-H1; and the negative control antibodies are anti-Fluorescein-hIgG1 (in house). The binding results of the 4 humanized bispecific antibodies to human PVRIG protein are shown in FIG. 41 and Tables 40 and 41, and the binding results to cynomolgus monkey PVRIG are shown in FIG. 42 and Tables 40 and 41. […] The binding of LC-BsAb-002 and LC-BsAb-006 to human PVRIG protein is slightly weaker than that of the corresponding monoclonal antibody (PVRIG-A50-H1b) and the positive control (COM701-hIgG1).

[7] = target: T5, human PVRIG (AcroBiosystems, Cat NO. PVG-H52H4) (human, UniProt Q6DKI7 41-171, limits assumed); assay: ELISA, coated human PVRIG
T5 construct: Bought protein with His tag; also called human PVRIG-his; human PVRIG protein
T5 sequence (looked up): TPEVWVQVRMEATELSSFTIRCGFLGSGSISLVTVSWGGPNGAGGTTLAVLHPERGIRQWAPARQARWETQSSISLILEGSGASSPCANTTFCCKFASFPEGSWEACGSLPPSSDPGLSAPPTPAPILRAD
Experimental: as §2

[8] = target: T3, human PVRIG-mFc protein (Acro, …); assay: FACS blocking of PVRIG-mFc binding to CHO-K1-CD112 cells; competitor CD112
Summary of the method: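 After a further 30 min at 4° C with Zombie violet-stained CHO-K1-CD112 cells, binding was detected with PE goat anti-mouse IgG Fc (1:250) as mean fluorescence intensity on a BD Canto II. IC50 and curve AUC, taken from four-parameter logistic fits in GraphPad Prism, were expressed relative to a reference antibody as percentages.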

B1: RG6058-hIgG1 (antibody, V domains shown)
VH: EVQLQQSGPGLVKPSQTLSLTCAISGDSVSSNSAAWNWIRQSPSRGLEWLGKTYYRFKWYSDYAVSVKGRITINPDTSKNQFSLQLNSVTPEDTAVFYCTRESTTYDLLAGPFDYWGQGTLVTVSS
VL: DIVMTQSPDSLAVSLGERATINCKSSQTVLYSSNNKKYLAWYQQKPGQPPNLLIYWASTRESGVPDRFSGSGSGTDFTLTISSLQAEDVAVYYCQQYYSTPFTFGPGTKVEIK
notes: Anti-TIGIT positive control; also called Roche RG6058
% relative activity RG6058-hIgG1/tested antibody (human TIGIT ECD-mFc [1]): 100% | % relative activity TIGIT-002-H4L3/tested antibody (human TIGIT ECD-mFc [1]): 74.3% | EC50 (human TIGIT ECD-mFc [1]): 0.0504 nM | % relative activity RG6058-hIgG1/tested antibody [2]: 100% | % relative activity TIGIT-002-H4L3/tested antibody [2]: 90% | EC50 [2]: 0.0461 nM | % relative activity RG6058-hIgG1/tested antibody (human TIGIT ECD-mFc [3]): 100% | % relative activity TIGIT-005-H2L1d/tested antibody (human TIGIT ECD-mFc [3]): 85.2% | EC50 (human TIGIT ECD-mFc [3]): 0.0504 nM | % relative activity RG6058-hIgG1/tested antibody [4]: 100% | % relative activity TIGIT-005-H2L1d/tested antibody [4]: 96.8% | EC50 [4]: 0.0461 nM

B2: PVRIG-A50-H1b (Fc fusion)
chain: EVQLVESGGGLVQPGGSLRLSCAASGFTFSYYDMSWVRQAPGKGLEWVSTINSDGGRTSYVDSVKGRFTISRDNSKNTLYLQMNSLRAEDTAVYYCVEGDPHNFGLESLSLRDFGSWGQGTMVTVSS
notes: VHH-human IgG1 Fc format is stated for the parental VHH antibodies; not restated for the humanized variants; also called A50.VH1b; not shown: human IgG1 hinge-CH2-CH3 (Fc)
% relative activity COM701-hIgG1/tested antibody [5]: 66.7% | % relative activity PVRIG-A50-H1b/tested antibody [5]: 100% | IC50 [5]: 0.206 nM | % relative activity COM701-hIgG1/tested antibody [6]: 95.5% | % relative activity PVRIG-A50-H1b/tested antibody [6]: 100% | EC50 [6]: 0.038 nM | % relative activity COM701-hIgG1/tested antibody [7]: 65.4% | % relative activity PVRIG-A50-H1b/tested antibody [7]: 100% | EC50 [7]: 0.379 nM | % AUC to COM701-hIgG4 [8]: 104% | % AUC to SO35-hIgG1 [8]: 61.6% | % AUC to parental Ab [8]: 85.5% | % IC50 to COM701-hIgG4 [8]: 95.2% | % IC50 to SO35-hIgG1 [8]: 73.7% | % IC50 to parental Ab [8]: 81.4%
